These results are taken from the nanobody polyreactivity screen of Harvey et al. (2022).

The data set is described as follows: yeast display, Sf9 membrane polyspecificity reagent, FACS + sequencing; frameworks hold sequencing errors. In a few lines: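 Nanobodies from a synthetic yeast display library (Saccharomyces cerevisiae BJ5465), induced 36–48 hours with galactose, were stained 1 hour at 4 °C with 10% biotinylated, detergent-solubilized Sf9 membrane reagent, enriched on streptavidin microbeads, then FACS-sorted. Anti-HA (expression) and streptavidin (reagent binding) fluorescence set low and high (top ~1%) gates. Polyreactivity labels come from the gate of origin. Genes were colony-PCR amplified, MiSeq 2 × 250 sequenced and filtered by CDR length.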
Regarding “QVQLEESGGGLVQAGGSLRLTCAASGSTSQIYAMGWYRQAPGKERELVAAINGVGSTNYADSVKGRFTISRDNAKNTVYLQMNSLKPEDTAVYYCAADGTALHEYLGDYDYWGQGTQVTVSS”, the “polyreactivity (PSR sort gate)” value is “low polyreactivity”.

In the case of “QVQLVESGGGLVQAGGSLRLSCAASGSTFPRYGMGWYRQAPGKERELVATITNGAITYYADSVKGRFTISRDNAKNTVYLQMNSLKPEDTAVYYCAARHFQVPDYFPEYHYWGQGTQVTVSS”, the “polyreactivity (PSR sort gate)” value is listed as “low polyreactivity”.

Regarding “QVQLVESGGGLVQAGGSLRLSCAASGSTLPNNAMGWYRQAPGKERELVAAISWRGTRTYYADSVKGRFTISRDNAKNTVYLQMNSLKPEDTAVYYCAAGGVGAYDYWGQGTEVTVSS”, the “polyreactivity (PSR sort gate)” value is reported as “high polyreactivity”. Next, “QVQLVESGGGLVQAGGSLRLSCAASGSTIRLNAMGWYRQAPGKERELVAAISWTGGSTYYADSVKGRFTISRDNAKNTVYLQMNSLKPEDTAVYYCAADWWQGTSHYWGGAYNYWGQGTQVTVSS”: “low polyreactivity”; “QVQLVESGGGLVQAGGSLRLTCAASGFIFDEYAMGWYRQAPGKERELVAAISWSGSRTYYADSVKGRFTISRDNAKTTVYLQMNSLKPEDTAVYYCAKVTGVGAGRRNYWGQGTQVTVSS”: “high polyreactivity”; “QVHLVESGGGLVQAGGSLRLSCAASGSTLYDNAMGWYRQAPGKERELVAAITRRGAGTYYADSVKGRFTISRDNAKNTVYLQMNSLKPEDTAVYYCNAGRPYFVRYYYWGHGTQVTVSS”: “high polyreactivity”.

Regarding “QLQLVESGGGLVQAGGSLRLSCAASGSTFDTYAMGWYRHAPGKERELVAGINTDGDNTYYADSVKGRFTISRDNAKNTVYVQMNSLKPEDTAVYYCAARFYRASGRTPSYRGHHYDYWGQATQVTVSS”, the “polyreactivity (PSR sort gate)” value is “low polyreactivity”. Turning to “QVQLVESGGGLVQAGGSLRLSCAASGRIFQTYAMGWYRQAPGKERELVAAISSRGRTYYADSVKGRFTISRDNAKNTVYLQMNSLKPEDTAVYYCAARDWSHRPRGYDYWGQGTQVTVSS”, the “polyreactivity (PSR sort gate)” value is given as “high polyreactivity”. In the case of “QVQLVESGGGLVQAGGSLRLSCAASGIIFYYYAMGWYRQAPGKERELVAAISWSGGSTYYADSVKGRFTISRDNAKNTVYLQMNSLKPEDTAVYYCAASSTSGYDWGQGTQVTVSS”, the “polyreactivity (PSR sort gate)” value is on record as “low polyreactivity”. Regarding “QVQLVESGGGLVHAGGSLRLSCAASGFTFAQNAMGWYRQATGKEREWVAAITRSGARTYYADSVKGRFTISRDNAKNTVYLLMNSLKPEDTPVYYCNRDASRKYGYWGQGTQVTVSS”, the “polyreactivity (PSR sort gate)” value was “high polyreactivity”. Then “QVQLVESGGGLVQAGGSLRLSCAASGRTFTPYAKGWYRQAPGKERELVATISSGTSTNYADSVKGRFTISLDNAKYTVYLQMNSLKPEDTAVYYCAADGYTYKFDYWGQGSQVTVSS”, with “low polyreactivity”; and “QVQLVESGGGLVQAGGSLRLSCAASGLISYAYAMGWYRQAPGKERELVAAIRSSGSTYYADSVKGRFTISLDNAKNTVYLQMNSLKPEDTAVYYCAKRNPIKYYGGGYWGQGTQVTVSS”, with “high polyreactivity”; and “QVQLVESGGGLVQAGGSLRLSCAASGRTFRGYVMGWYRQAPGKERELVAAISKSGGSTYYADSVKGRFTISRDNAKNTVYLQMNSLKPEDTAVYYCAKNYRYYVFYDGFDYWGQGTQVTVSS”, with “low polyreactivity”. Turning to “QVQHVESGGGLVQAGGSLRLSCAASGSTFSQYGMGWYRQAPGKEREFVAGISGSGGRTYYADSVKGRFTSSRDNAKNTVYLQMNSLKPEDTAVYYCAAETVYKWWYDYYYWGQGTQVTVSS”, the “polyreactivity (PSR sort gate)” value is on record as “high polyreactivity”. “QVQLVESGGGLVQAGGSLRLSCAASGFTFEFYVMGGYSPAPGKERELVAAISTTGGSTYYADSVKGRFTISRDNAKNTVYLQMNSLKPEDTAVYYCAAEYYLWWKSHLWEYGYWGQGTQVTVSS”: the “polyreactivity (PSR sort gate)” value is “high polyreactivity”.

On to “QVQLVESGGGLVQAGGSLRLSCAASGLIFDRSAMGWYRPAPGKERELDAASRWTGASSTYYADSVKGRFTISRDNAKNTVYLQMNSLKPEDTAVYYCNADSPYSFATGPYVLDSDYWGQGTQVTVSS”, for which the “polyreactivity (PSR sort gate)” value is given as “low polyreactivity”. Consider “QVQLVESGGGLVQAGGRLRLTCAASGRIFYRYAMGWYRQAPGKERELVASITRSGITHYADSVKGRFTISRDNAKNTVYLQMNSLKPEDTAVYYCNARRGSPAPYDYWGKGTQVTVSS”, for which the “polyreactivity (PSR sort gate)” value is “high polyreactivity”. For “QVQLVESGGGLVQAGGSLRLSCAASGRTFNFYAMGWYRQAPGKERELVAAISRTGGITYYADSVKGRFTISRDNAKNTVYLQMNSLKPEDTAVYYCNAEYIYYYPTDPYTYYYWGQGTQVTVSS”, the “polyreactivity (PSR sort gate)” value is recorded as “low polyreactivity”. Take “QVQLVESGGGLVQAGGSLRLSCAASGSTFDAYAMGWYRQAPGKERELVAAITWSGGSTYYADSVKGRFTISRDNAKNTVYLQMNSLKPEDTAVYYCAAYYLIFYFEFDYWGQGTQVTVSS”: the “polyreactivity (PSR sort gate)” value was “low polyreactivity”. In the case of “QVQLVESGGGLVQAGGSLRLSCAASGFIFVPNAMGWYRQAPGKERELVAAITWSGSSTYYADSVKGRFTISRDNAKNTVYLQINSLKPEDTAVYYCAADYPVWDEFYDSYEYWGQGTQVTVSS”, the “polyreactivity (PSR sort gate)” value is reported as “high polyreactivity”. In the case of “QDQHVESGRGLVQAGGSLRLSCSASGTIFAYVMGWNIQAPRKERQLVAAISRSGGSTYYADSVKGRFTISRDNAKNTVYLQMNSLKPEDTAVFYCAAVGSTVFGTRYYYWGEGTQVTVSS”, the “polyreactivity (PSR sort gate)” value was “high polyreactivity”.

For the sequence “QVQVVESGGGFVQAGGSLRLSCAASGRTFRYYAMGWYRQAPGKERELVAVISSSDSTNYADSVKGRFTISRDNAKNTVNLQMNSLKPEDTGVYYCAKVYRVIRPYGYWGQGTQVTVSS”, the “polyreactivity (PSR sort gate)” value is on record as “high polyreactivity”.

Take “QVQLVESGGGLVQAGGSLRLSCAASGFTFRYNTMGWYRQAPGKERELVAAISSSGGRTYYADSVKGRFTISRDNAKNTVYLQMNSLKPEDTAVYYCNAVTRESGGFDYWGQGTQVTVSS”: the “polyreactivity (PSR sort gate)” value is reported as “high polyreactivity”. As to “QVQLVESGGGLVQAGGSLRLSCAASGITFVSYTMGWYRQAPGKERELVAAISTSGGSTYYADSVKGRFTISRDNAKNTVYLQMNSLKPEDTAVYYCAARQVRTIRKYGYWGQGTQVTVSS”, the “polyreactivity (PSR sort gate)” value is given as “high polyreactivity”. “QVQVVESGGGLVQAGGSLRISCAASGRILGNNVMGWYRQAPWKERDLVAAITSSGGRTYYADSVKGRFTISRDNAKNTVYLQMNSLKPVDTAVYYCAAERRYYGKFNYWGHGTQVTVSS”: the “polyreactivity (PSR sort gate)” value was “high polyreactivity”. For “QVQLVESGGGLVQAGGSLRLSCAASGRIIARYTMGWYRQAPGKERELVAAITRGSSTYYADSVKGRFTISRDNALNTVFLHMNSQKPEDTAVNYCAKVYVVKSRYVYWGKGTQVTVSS”, the “polyreactivity (PSR sort gate)” value is “low polyreactivity”.

As to “QVQLVESGGGLLQAGGSLRLSCAASGLIFQNYAMGSYRQAPGKEREFVATITSSGTSTYYADSVKGRFTISRDNAKNTVYLQMNSLKPEDTAVYYCAATGYWWEYDYWGQGTQVTVSS”, the “polyreactivity (PSR sort gate)” value is “high polyreactivity”. As to “QVQLVESGGGLVQAGGSLRLSCAASGRIFIRDARGWYRPAPGKERELVAALTRGGSTYYADSVKGRFTISRDTAKNTVYLQMNSLKPEDTAVYYCAARVGYPYYYWGQGTQVTVSS”, the “polyreactivity (PSR sort gate)” value is recorded as “high polyreactivity”. Then “QVQLVESGGGLVQAGGSLRLSCAASGFNYYRYVMVWYRQAPGKERELVAAITTSGGSTYYADSVKGRFTISRDNAKNTVYLQMNSLKPEDTAVYYCAAVYIPSRQWYDYWGQGTQVTVSS”, with “high polyreactivity”. Consider “QVQLVESGVCLVQAGGSLRLSCAASGSTYTYAMGWYRQAPGKERELVADITQSGGSTYYADSVKGRFTISRDNAKKTVYLQMNTLKPEDTAVYYCNAESRHVFEDEYWGQGTQVTVSS”, for which the “polyreactivity (PSR sort gate)” value is “low polyreactivity”. As for “QVQLVEYWGALVQAGGTLRLSCAASGRIFGTNALAWNRQAPGKERELEATITRGGGNTYYADSVKGRFTISRDKAKYTVYLQMNSLKPEDTAVYYCAAKFHRFAWYSHYDDWGQGSQVTVSS”, the “polyreactivity (PSR sort gate)” value was “low polyreactivity”. Then “QVQLVESGGGLVQAGGSLRLSCAASGSIFTFYAMGWYRQAPGKERELVATITWSGGSTFYADSVKGRFTISRDNAKNTVYLQMNSLKPEDTAVYYCAAYRVDYSDAYYYWGQGTQVTVSS”, with “low polyreactivity”; and “QVHRVESGGGLVQAGGSLRLSCAASGIIFARYAMGWYRPAPGKERELVAAITRRAVSTYYADSVKGRFTITRDNAKNSVYLQLISLKPEDTAVYYCAADRASYFTYAYGYWGQGTQVTVSS”, with “high polyreactivity”.

“QVQLVESVGGLVQAGGSLRLSCAASGSIFDSYAMGWYRQAPGKERELVADISSGGSTYYADSVKGRFTISRDNAKNTVYLQMNSLKPEDTAVYYCAAQYVYYFYGDEAFTDDYWGQGTQVTVSS”: the “polyreactivity (PSR sort gate)” value is “low polyreactivity”. Take “QVQLVESGGGLVQAGGSLRLSCAASGSIGYYVMGWYRQAPGKERELVAVITFGGASTYYADSVKGRFTISRDNAKNTVYLQMNSLKPEDTAVYYCARYQHRLVYGYGYWGQGTQVTVSS”: the “polyreactivity (PSR sort gate)” value is given as “low polyreactivity”. Take “QVQLVESGGGLVQAGGSLRLSCAASGSIFSDYAMGWYRQAPGTERELVAAITEGGDSTYYADSVKGRFTISRDNAKNTVYLQMNSLKPEDTAVYSCAAEVYQLFTSPFDYWGQGTQVTVSS”: the “polyreactivity (PSR sort gate)” value is “low polyreactivity”.

On to “QVQLVESGGGLVQAGGSLRLSCVASGRTFSRYAMGWYRQAPGKERELVAAISRRGGSTYYADSVKGRFTISRDNAKNTVYLQMNRLKPEDTAVNYCAAGYITCGSGNWVVTPYDYWGQGTQVTVSS”, for which the “polyreactivity (PSR sort gate)” value was “high polyreactivity”. Turning to “QVQLVESGGGLVQAGGSLRLSCAASGSIFRVYALGWSRQAPGKERELVAAISSSGGSTYYADSVKGRFTISRDNAKNTVYLQMNSLKPEDTAVYYCAAEYDGPYTWVDYYYHYGYWGQGTQVTVSS”, the “polyreactivity (PSR sort gate)” value is on record as “low polyreactivity”. As for “QVQLEESGGGLVQAGGSLRLSCAASGNTFYLYAMGWYRQAPGKERELVASITGGTRTNYADSVKGRFTISRDNAKNTVYLQMNSLKPEDTAVYYCAKTYPRTVGKYLSRGGYYYWGQGTQVTVSS”, the “polyreactivity (PSR sort gate)” value is recorded as “high polyreactivity”. For the sequence “QVQLVESGGGLVQAGGSLRLSCAASGFTIDNYAMGWYRHSPGKEMEVVAAINWSGDRMYYADSVKGRFTFSRDNAKNTVYLQMNSLKPEDTAVYYCAAPASRSQGPFPGYDYWGQGTQVTVSS”, the “polyreactivity (PSR sort gate)” value is “high polyreactivity”. Then “QVQLVESGGGLVQAGGSLRLSCAPSGRTFDQYAMGWYRQAPGKERELVADITWSGGTTRYADSVKGRFTISRDHAKNTVYLQMNSLKPEDTAVYYCAVEVTWGYNYWGQVTQVTVSS”, with “low polyreactivity”.
